The values that follow come from the RNAGym collection of RNA variant scans (doi:10.1093/nar/gkz1192).

The chains are these.
B1: CPEB3 Ribozyme (parent)
chain: UAACAGGGGGCCACAGCAGAAGCGUUCACGUCGCAGCCCCUGUCAGAUUCUGGUGAAUCUGCGAAUUCUGCUGUAUAUCUC

Variants of B1 are the subject of this data set. Put plainly: self-cleavage, relative activity (ratio to wild type); higher = more cleavage; in vitro, sequencing. In a few lines: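 CPEB3 self-cleaving ribozyme mutant libraries were made by rounds of error-prone PCR, barcoded, and transcribed in vitro with T7 RNA polymerase for 5 hours at 37°C. Cleavage occurred during transcription and a 15 min DNase I step before EDTA stop. RNAs were reverse transcribed with template switching and Illumina-sequenced, with DNA sequencing mapping barcodes to variants. Relative activity is the variant's cleaved/total read fraction divided by wild type's (minimum 5 reads), averaged across three batches.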
As to UAACAGGGGGCCACAGCAGAAGCUUUCACGUCGCAGCCCCUGUCAGAUUCUGGUGAAUCUGCGAAUCCUGCUGUAUAUCUC [G24U U67C], the self-cleavage is 0.1.

With UAACAGGGGGCCACAGCAGAAGCUUUCACGUCGCAGCCCCUGUCUGAUUCUGGUGAAUCUGCGAAUUCUGCUGUAUAUCUC [G24U A45U], the self-cleavage was found to be 0.18. For the variant UAACAGGGGGCCACAGCAGAAGCUUUCACGUCGCAGCCCCUGUCCGAUUCUGGUGAAUCUGCGAAUUCUGCUGUAUAUCUC [G24U A45C], the self-cleavage amounted to 0.22. As to UAACAGGGGGCCACAGCAGAAGCUUUCACGUCGCAGCCCCUGUCAGAUUCUGGUGAAUCUGCGUAUUCUGCUGUAUAUCUC [G24U A64U], the self-cleavage is 0.3.

As to UAACAGGGGGCCACAGCAGAAGCUUUCACGUCGCAGCCCCUGUCAGAUUCUGGUGAAUCUGCGGAUUCUGCUGUAUAUCUC [G24U A64G], the self-cleavage is 0.18.

As for UAACAGGGGGCCACAGCAGAAGCUUUCACGUCGCAGCCCCUGUCAGAUACUGGUGAAUCUGCGAAUUCUGCUGUAUAUCUC [G24U U49A], the self-cleavage was 0.23. To UAACAGGGGGCCACAGCAGAAGCUUUCACGUCGCAGCCCCUGUCAGAUUCCGGUGAAUCUGCGAAUUCUGCUGUAUAUCUC [G24U U51C] belongs 0.2; to UAACAGGGGGCCACAGCAGAAGCUUUCACGUCGCAGCCCCUGUCAGAUUCAGGUGAAUCUGCGAAUUCUGCUGUAUAUCUC [G24U U51A], 0.1. For UAACAGGGGGCCACAGCAGAAGCCUUCACGUCGCAGCCCCUGUCAGAUUCUGGUGAAUCUGCGAACUCUGCUGUAUAUCUC [G24C U66C] the value was 0.26. Consider UAACAGGGGGCCACAGCAGAAGCUUUCACGUCGCAGCCCCAGUCAGAUUCUGGUGAAUCUGCGAAUUCUGCUGUAUAUCUC [G24U U41A], for which the self-cleavage stood at 0.23. To UAACAGGGGGCCACAGCAGAAGCCUUCACGUCGCAGCCCCUGUCAGAUUCAGGUGAAUCUGCGAAUUCUGCUGUAUAUCUC [G24C U51A] belongs 0.3. To UAACAGGGGGCCACAGCAGAAGCCUUCACGUCGCAGCCCCUGUCAGAUUCCGGUGAAUCUGCGAAUUCUGCUGUAUAUCUC [G24C U51C] belongs 0.32; to UAACAGGGGGCCACAGCAGAAGCUAUCACGUCGCAGCCCCUGUCAGAUUCUGGUGAAUCUGCGAAUUCUGCUGUAUAUCUC [G24U U25A], 0.3; to UAACAGGGGGCCACAGCAGAAGCCUUCACGCCGCAGCCCCUGUCAGAUUCUGGUGAAUCUGCGAAUUCUGCUGUAUAUCUC [G24C U31C], 0.1. To UAACAGGGGGCCACAGCAGAAGCCUUCACGGCGCAGCCCCUGUCAGAUUCUGGUGAAUCUGCGAAUUCUGCUGUAUAUCUC [G24C U31G] belongs 0.34; to UAACAGGGGGCCACAGCAGAAGCUUUCGCGUCGCAGCCCCUGUCAGAUUCUGGUGAAUCUGCGAAUUCUGCUGUAUAUCUC [G24U A28G], 0.17.

Take UAACAGGGGGCCACAGCAGAAGCUUUCACGCCGCAGCCCCUGUCAGAUUCUGGUGAAUCUGCGAAUUCUGCUGUAUAUCUC [G24U U31C]: the self-cleavage came out at 0.37.

UAACAGGGGGCCACAGCAGAAGCCUUCACGUCGCAGCCCCUGUCAGAUUCUGGUGAAUCUGCGAAUUCCGCUGUAUAUCUC [G24C U69C]: the self-cleavage is 0.17. Take UAACAGGGGGCCACAGCAGAAGCCUUCACGUCGCAGCCCCUGUCAGAUUCUGGUGAAUCUGCGAAUUCAGCUGUAUAUCUC [G24C U69A]: the self-cleavage was determined as 0. For UAACAGGGGGCCACAGCAGAAGCGAUCACGUCGCAGCCCCUGUCAGGUUCUGGUGAAUCUGCGAAUUCUGCUGUAUAUCUC [U25A A47G] the value was 0.33; for UAACAGGGGGCCACAGCAGAAGCGAUCACGUCGCAGCCCCUGUCAGUUUCUGGUGAAUCUGCGAAUUCUGCUGUAUAUCUC [U25A A47U], 0.27. UAACAGGGGGCCACAGCAGAAGCGAUCACGUCGCAGCCCCUGUCAGAUUCUGGUGAAUCUGCGAAUUCUGCUGUAUAUCUC [U25A]: the self-cleavage was 0.3. To UAACAGGGGGCCACAGCAGAAGCGAUCACGUCGCGGCCCCUGUCAGAUUCUGGUGAAUCUGCGAAUUCUGCUGUAUAUCUC [U25A A35G] belongs 0.31; to UAACAGGGGGCCACAGCAGAAGCGAUCACGUCGCCGCCCCUGUCAGAUUCUGGUGAAUCUGCGAAUUCUGCUGUAUAUCUC [U25A A35C], 0.2; to UAACAGGGGGCCACAGCAGAAGCGAUCACGUCGCUGCCCCUGUCAGAUUCUGGUGAAUCUGCGAAUUCUGCUGUAUAUCUC [U25A A35U], 0.29. Regarding UAACAGGGGGCCACAGCAGAAGCCUUCACGUCGCAGCCCCUGUCAGAUUCUGGUGAAUCUGCGAAUUCUGCUGUAUAUCCC [G24C U80C], the self-cleavage was 0.36. As to UAACAGGGGGCCACAGCAGAAGCUUUCACGUCGCAGCCCCUGUCAGAUUCUGGUGAAUCUGCGAAUUCUGCCGUAUAUCUC [G24U U72C], the self-cleavage is 0.52. UAACAGGGGGCCACAGCAGAAGCUUUCACGUCGCAGCCCCUGUCAGAUUCUGGUGAAUCUGCGAAUUCUGCAGUAUAUCUC [G24U U72A]: the self-cleavage turned out to be 0.11. For UAACAGGGGGCCACAGCAGAAGCUUUCACGUCGCAGCCCCUGUCAGAUUCUGGUGAAUCUGCGAAUUCUGCUGUAUUUCUC [G24U A77U] the value was 0.15. To UAACAGGGGGCCACAGCAGAAGCUUUCACGUCGCAGCCCCUGUCAGAUUCUGGUGAAUCAGCGAAUUCUGCUGUAUAUCUC [G24U U60A] belongs 0.16. Consider UAACAGGGGGCCACAGCAGAAGCUUUCACGUCGCAGCCCCUGUCAGGUUCUGGUGAAUCUGCGAAUUCUGCUGUAUAUCUC [G24U A47G], for which the self-cleavage was found to be 0.31. For UAACAGGGGGCCACAGCAGAAGCCUUCACGUCGCAGCCCCUGUCAGAUUCUGGUGAACCUGCGAAUUCUGCUGUAUAUCUC [G24C U58C] the value was 0.2; for UAACAGGGGGCCACAGCAGAAGCUUUCACGUCGCUGCCCCUGUCAGAUUCUGGUGAAUCUGCGAAUUCUGCUGUAUAUCUC [G24U A35U], 0.19. Regarding UAACAGGGGGCCACAGCAGAAGCUUUCACGUCGCGGCCCCUGUCAGAUUCUGGUGAAUCUGCGAAUUCUGCUGUAUAUCUC [G24U A35G], the self-cleavage came to 0.9.
